In patent publication US20150344570A1 (published 2015):

B1: GpH7-A5/GpH7-B3 variant Y296_16H/GpL16-k0 (antibody, human IgG1, kappa)
heavy 1: not shown
heavy 2: not shown
light: DIVMTQSPLSLPVTPGEPASISCQASESLVHSNRNTYLHWYLQKPGQSPQLLIYKVSNRFSGVPDRFSGSGSGTDFTLKISRVEAEDVGVYYCSQNTHVPPTFGQGTKVEIERTVAAPSVFIFPPSDEQLKSGTASVVCLLNNFYPREAKVQWKVDNALQSGNSQESVTEQDSKDSTYSLSSTLTLSKADYEKHKVYACEVTHQGLSSPVTKSFNRGEC
notes: Heterodimerized IgG1 antibody; alteration in the GpH7-B3 chain only; also called He Ab
B2: GpH7-B3 variant K326_07I/GpL16-k0 (antibody, human IgG1, kappa)
heavy: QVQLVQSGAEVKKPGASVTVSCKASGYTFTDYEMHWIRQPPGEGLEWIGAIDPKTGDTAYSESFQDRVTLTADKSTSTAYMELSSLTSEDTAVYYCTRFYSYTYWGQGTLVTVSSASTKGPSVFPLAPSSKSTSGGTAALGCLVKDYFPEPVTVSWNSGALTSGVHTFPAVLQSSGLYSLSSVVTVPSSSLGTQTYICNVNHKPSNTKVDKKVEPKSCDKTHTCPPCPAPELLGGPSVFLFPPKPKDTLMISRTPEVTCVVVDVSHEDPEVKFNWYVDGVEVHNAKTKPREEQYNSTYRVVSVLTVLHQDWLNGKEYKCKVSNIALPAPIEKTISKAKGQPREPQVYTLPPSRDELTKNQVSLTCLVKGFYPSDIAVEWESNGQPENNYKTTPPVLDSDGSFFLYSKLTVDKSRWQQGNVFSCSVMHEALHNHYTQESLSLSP
light: B1 light
notes: Alteration in both H chains; also called Ho Ab K326_07I
B3: GpH7-B3 variant P271_08L/GpL16-k0 (antibody, human IgG1, kappa)
heavy: not shown
light: B1 light
notes: Alteration in both H chains; also called Ho Ab P271_08L
B4: GpH7-B3 variant K334_09D/GpL16-k0 (antibody, human IgG1, kappa)
heavy: not shown
light: B1 light
notes: Alteration in both H chains; also called Ho Ab K334_09D
B5: GpH7-B3 variant P271_10E/GpL16-k0 (antibody, human IgG1, kappa)
heavy: not shown
light: B1 light
notes: Alteration in both H chains; also called Ho Ab P271_10E
B6: GpH7-B3 variant S267_14T/GpL16-k0 (antibody, human IgG1, kappa)
heavy: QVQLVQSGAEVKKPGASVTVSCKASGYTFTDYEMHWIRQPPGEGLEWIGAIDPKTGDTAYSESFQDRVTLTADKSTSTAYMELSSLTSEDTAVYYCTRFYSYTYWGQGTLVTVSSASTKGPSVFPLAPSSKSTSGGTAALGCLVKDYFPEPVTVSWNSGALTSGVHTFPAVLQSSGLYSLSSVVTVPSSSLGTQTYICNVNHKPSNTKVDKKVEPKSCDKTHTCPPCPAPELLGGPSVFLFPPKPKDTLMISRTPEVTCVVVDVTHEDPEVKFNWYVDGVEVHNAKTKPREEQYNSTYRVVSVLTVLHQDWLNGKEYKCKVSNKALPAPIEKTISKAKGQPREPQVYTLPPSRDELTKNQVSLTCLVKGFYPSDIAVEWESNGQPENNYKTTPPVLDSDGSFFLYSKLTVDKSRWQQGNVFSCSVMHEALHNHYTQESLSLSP
light: B1 light
notes: Alteration in both H chains; also called Ho Ab S267_14T
B7: GpH7-B3 variant K326_03V/GpL16-k0 (antibody, human IgG1, kappa)
heavy: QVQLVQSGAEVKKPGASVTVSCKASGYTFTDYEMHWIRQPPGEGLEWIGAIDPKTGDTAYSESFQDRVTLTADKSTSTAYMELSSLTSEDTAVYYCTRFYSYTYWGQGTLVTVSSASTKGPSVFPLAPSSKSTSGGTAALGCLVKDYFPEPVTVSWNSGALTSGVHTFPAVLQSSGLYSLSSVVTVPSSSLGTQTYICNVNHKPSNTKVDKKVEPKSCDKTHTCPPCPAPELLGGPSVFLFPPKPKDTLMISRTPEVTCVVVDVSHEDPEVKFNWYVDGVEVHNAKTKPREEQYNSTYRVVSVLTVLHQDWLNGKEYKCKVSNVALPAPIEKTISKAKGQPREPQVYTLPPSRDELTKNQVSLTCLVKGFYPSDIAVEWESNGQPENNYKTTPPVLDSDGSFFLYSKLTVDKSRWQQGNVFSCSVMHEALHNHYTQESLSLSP
light: B1 light
notes: Alteration in both H chains; also called Ho Ab K326_03V
B8: GpH7-A5/GpH7-B3 variant S324_05P/GpL16-k0 (antibody, human IgG1, kappa)
heavy 1: not shown
heavy 2: not shown
light: B1 light
notes: as for B1
B9: GpH7-B3 variant P271_01G/GpL16-k0 (antibody, human IgG1, kappa)
heavy: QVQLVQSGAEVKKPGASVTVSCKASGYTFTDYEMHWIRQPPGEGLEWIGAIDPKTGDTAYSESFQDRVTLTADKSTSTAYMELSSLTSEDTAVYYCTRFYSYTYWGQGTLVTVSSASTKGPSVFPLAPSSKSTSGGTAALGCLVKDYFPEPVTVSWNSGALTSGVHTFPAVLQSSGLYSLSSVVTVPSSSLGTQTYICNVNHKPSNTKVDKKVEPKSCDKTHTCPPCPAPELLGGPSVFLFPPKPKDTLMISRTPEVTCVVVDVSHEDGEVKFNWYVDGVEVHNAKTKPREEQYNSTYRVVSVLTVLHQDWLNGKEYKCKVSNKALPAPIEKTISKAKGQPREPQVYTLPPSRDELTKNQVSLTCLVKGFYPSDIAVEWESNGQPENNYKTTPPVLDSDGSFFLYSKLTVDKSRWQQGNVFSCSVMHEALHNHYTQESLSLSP
light: B1 light
notes: Alteration in both H chains; also called Ho Ab P271_01G
B10: GpH7-A5/GpH7-B3 variant Y296_14T/GpL16-k0 (antibody, human IgG1, kappa)
heavy 1: not shown
heavy 2: not shown
light: B1 light
notes: as for B1
B11: GpH7-B3 variant I336_16H/GpL16-k0 (antibody, human IgG1, kappa)
heavy: not shown
light: B1 light
notes: Alteration in both H chains; also called Ho Ab I336_16H
B12: GpH7-B3 variant I336_15Y/GpL16-k0 (antibody, human IgG1, kappa)
heavy: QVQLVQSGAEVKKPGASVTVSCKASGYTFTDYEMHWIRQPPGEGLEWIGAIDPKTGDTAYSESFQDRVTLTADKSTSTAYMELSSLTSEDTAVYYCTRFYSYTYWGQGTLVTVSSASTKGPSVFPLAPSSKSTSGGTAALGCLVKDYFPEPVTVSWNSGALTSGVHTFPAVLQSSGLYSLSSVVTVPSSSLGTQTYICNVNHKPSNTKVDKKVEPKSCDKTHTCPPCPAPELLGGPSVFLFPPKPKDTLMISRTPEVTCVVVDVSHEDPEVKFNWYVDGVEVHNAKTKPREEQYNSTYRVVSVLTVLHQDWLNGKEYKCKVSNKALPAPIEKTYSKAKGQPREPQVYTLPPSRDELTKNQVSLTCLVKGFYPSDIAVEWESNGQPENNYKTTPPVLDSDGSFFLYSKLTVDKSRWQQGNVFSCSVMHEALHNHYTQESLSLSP
light: B1 light
notes: Alteration in both H chains; also called Ho Ab I336_15Y
B13: GpH7-B3 variant K334_13S/GpL16-k0 (antibody, human IgG1, kappa)
heavy: not shown
light: B1 light
notes: Alteration in both H chains; also called Ho Ab K334_13S
B14: GpH7-A5/GpH7-B3 variant Y296_01G/GpL16-k0 (antibody, human IgG1, kappa)
heavy 1: not shown
heavy 2: not shown
light: B1 light
notes: as for B1
B15: GpH7-B3 variant K334_19Q/GpL16-k0 (antibody, human IgG1, kappa)
heavy: not shown
light: B1 light
notes: Alteration in both H chains; also called Ho Ab K334_19Q
B16: GpH7-B3 variant K334_15Y/GpL16-k0 (antibody, human IgG1, kappa)
heavy: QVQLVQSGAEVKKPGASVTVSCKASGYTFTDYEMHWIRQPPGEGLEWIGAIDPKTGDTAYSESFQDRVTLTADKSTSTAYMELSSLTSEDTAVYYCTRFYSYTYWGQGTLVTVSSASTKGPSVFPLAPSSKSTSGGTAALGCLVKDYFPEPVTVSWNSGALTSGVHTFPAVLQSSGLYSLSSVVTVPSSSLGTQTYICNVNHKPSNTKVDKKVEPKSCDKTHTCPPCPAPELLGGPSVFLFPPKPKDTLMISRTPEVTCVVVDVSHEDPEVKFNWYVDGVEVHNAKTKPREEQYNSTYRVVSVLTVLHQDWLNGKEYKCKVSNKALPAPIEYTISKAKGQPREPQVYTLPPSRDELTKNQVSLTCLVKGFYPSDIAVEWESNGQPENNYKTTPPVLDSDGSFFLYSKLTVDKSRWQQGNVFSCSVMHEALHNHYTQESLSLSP
light: B1 light
notes: Alteration in both H chains; also called Ho Ab K334_15Y
B17: GpH7-B3 variant P271_18N/GpL16-k0 (antibody, human IgG1, kappa)
heavy: not shown
light: B1 light
notes: Alteration in both H chains; also called Ho Ab P271_18N
B18: GpH7-B3 variant S267_06M/GpL16-k0 (antibody, human IgG1, kappa)
heavy: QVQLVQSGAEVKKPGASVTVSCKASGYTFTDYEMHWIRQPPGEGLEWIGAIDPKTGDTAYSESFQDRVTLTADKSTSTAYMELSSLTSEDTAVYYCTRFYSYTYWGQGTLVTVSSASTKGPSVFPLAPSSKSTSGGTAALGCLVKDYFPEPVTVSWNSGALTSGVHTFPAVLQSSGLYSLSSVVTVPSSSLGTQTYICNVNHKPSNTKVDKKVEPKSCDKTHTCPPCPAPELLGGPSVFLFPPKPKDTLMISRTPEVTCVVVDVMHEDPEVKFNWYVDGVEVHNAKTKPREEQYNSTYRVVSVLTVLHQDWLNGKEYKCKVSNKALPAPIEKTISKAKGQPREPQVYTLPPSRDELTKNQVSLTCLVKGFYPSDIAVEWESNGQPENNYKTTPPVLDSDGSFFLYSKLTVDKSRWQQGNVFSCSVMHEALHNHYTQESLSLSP
light: B1 light
notes: Alteration in both H chains; also called Ho Ab S267_06M
B19: GpH7-B3 variant K334_05P/GpL16-k0 (antibody, human IgG1, kappa)
heavy: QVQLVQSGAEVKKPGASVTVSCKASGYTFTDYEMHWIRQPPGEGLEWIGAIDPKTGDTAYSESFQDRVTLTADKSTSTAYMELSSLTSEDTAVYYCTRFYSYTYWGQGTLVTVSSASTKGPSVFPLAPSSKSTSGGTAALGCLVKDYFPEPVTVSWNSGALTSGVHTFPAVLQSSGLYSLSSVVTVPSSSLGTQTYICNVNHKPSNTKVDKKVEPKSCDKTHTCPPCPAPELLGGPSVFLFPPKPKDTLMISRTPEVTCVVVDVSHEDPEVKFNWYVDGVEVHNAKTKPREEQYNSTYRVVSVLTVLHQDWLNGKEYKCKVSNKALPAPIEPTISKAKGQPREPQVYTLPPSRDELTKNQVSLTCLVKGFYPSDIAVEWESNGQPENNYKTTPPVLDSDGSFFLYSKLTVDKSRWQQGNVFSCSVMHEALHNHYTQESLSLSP
light: B1 light
notes: Alteration in both H chains; also called Ho Ab K334_05P
B20: GpH7-B3 variant K334_14T/GpL16-k0 (antibody, human IgG1, kappa)
heavy: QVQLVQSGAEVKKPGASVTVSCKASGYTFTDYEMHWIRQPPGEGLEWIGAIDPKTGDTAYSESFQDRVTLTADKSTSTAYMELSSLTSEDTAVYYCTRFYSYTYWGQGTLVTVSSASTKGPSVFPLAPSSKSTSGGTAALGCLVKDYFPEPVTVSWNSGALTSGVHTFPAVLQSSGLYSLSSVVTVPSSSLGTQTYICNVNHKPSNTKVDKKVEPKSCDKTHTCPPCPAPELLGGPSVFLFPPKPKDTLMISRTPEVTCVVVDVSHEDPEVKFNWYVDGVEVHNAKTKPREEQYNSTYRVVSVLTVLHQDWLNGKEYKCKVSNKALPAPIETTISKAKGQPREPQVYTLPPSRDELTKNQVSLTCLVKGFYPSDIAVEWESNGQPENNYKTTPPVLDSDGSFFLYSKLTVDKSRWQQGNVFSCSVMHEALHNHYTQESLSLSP
light: B1 light
notes: Alteration in both H chains; also called Ho Ab K334_14T
B21: GpH7-B3 variant K326_19Q/GpL16-k0 (antibody, human IgG1, kappa)
heavy: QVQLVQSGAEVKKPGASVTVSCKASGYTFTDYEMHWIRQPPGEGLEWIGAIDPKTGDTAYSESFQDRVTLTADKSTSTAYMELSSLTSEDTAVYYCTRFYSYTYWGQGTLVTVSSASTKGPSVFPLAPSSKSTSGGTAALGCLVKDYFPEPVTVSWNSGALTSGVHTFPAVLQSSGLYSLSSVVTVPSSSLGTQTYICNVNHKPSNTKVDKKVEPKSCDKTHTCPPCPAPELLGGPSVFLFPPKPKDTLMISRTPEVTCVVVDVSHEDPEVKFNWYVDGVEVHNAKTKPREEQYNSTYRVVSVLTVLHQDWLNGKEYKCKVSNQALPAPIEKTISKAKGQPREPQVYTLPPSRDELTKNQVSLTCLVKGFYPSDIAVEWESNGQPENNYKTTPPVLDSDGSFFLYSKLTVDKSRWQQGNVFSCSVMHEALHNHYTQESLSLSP
light: B1 light
notes: Alteration in both H chains; also called Ho Ab K326_19Q
B22: GpH7-B3 variant K334_04F/GpL16-k0 (antibody, human IgG1, kappa)
heavy: not shown
light: B1 light
notes: Alteration in both H chains; also called Ho Ab K334_04F
B23: GpH7-B3 variant K334_07I/GpL16-k0 (antibody, human IgG1, kappa)
heavy: not shown
light: B1 light
notes: Alteration in both H chains; also called Ho Ab K334_07I
B24: GpH7-B3 variant K326_06M/GpL16-k0 (antibody, human IgG1, kappa)
heavy: not shown
light: B1 light
notes: Alteration in both H chains; also called Ho Ab K326_06M
B25: GpH7-A5/GpH7-B3 variant P271_14T/GpL16-k0 (antibody, human IgG1, kappa)
heavy 1: not shown
heavy 2: not shown
light: B1 light
notes: as for B1
B26: GpH7-B3 variant S267_10E/GpL16-k0 (antibody, human IgG1, kappa)
heavy: not shown
light: B1 light
notes: Alteration in both H chains; also called Ho Ab S267_10E

Experiments:
[1] = biological target: T1, FcγRIIIa extracellular domain with C-terminal His tag (human, UniProt P08637 17-208); experiment: SPR (Biacore), FcγR as analyte over captured antibody; GpH7-A5/GpH7-B3/GpL16-k0 = 100
T1 construct: extracellular domain; also called FcgRIIIa; 3a; not shown: His tag at the C terminus
T1 sequence (P08637 17-208): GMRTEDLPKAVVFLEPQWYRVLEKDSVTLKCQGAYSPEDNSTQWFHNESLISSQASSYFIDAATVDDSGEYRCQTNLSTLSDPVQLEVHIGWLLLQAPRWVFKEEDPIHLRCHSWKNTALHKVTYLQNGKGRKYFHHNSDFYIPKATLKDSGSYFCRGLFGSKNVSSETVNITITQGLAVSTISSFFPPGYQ

[2] = biological target: T2, FcγRIIb extracellular domain with C-terminal His tag (human, UniProt P31994 43-217); experiment: as above
T2 construct: extracellular domain; also called FcgRIIb; 2b; not shown: His tag at the C terminus
T2 sequence (looked up): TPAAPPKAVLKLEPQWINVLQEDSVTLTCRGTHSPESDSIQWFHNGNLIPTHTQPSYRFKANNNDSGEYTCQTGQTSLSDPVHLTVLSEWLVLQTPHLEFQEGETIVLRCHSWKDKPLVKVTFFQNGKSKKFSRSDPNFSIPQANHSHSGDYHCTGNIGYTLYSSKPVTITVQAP

[3] = biological target: T1, FcγRIIIa extracellular domain with …; experiment: SPR (Biacore); He/Con_3a divided by He/Con_2b (FcγRIIb)
FcγRIa = biological target: T3, FcγRIa (human, UniProt P12314 16-292); experiment: SPR (Biacore), relative binding; control HoCon Ab GpH7-B3/GpL16-k0
T3 construct: extracellular domain; also called FcgRI; FcgRIa; not shown: His tag attached to the C terminus
T3 sequence (P12314 16-292): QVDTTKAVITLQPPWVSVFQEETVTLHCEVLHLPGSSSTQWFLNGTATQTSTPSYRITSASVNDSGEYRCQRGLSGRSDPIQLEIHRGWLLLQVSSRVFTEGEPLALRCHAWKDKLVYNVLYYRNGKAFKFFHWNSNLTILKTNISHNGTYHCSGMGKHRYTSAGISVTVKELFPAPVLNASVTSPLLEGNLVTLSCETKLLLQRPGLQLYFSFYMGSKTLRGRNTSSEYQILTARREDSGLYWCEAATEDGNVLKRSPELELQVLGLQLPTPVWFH

Binder | Ho/Con_1a (FcγRIa) | further results
B1 | – | He/Con_3a [1]: 73.4 % of control; He/Con_2b [2]: 92.2 % of control; He_3a/2b (IIIa/IIb) [3]: 0.8 ratio
B2 | 102 % of control (=100) | –
B3 | 103 % of control (=100) | –
B4 | 108 % of control (=100) | –
B5 | 103 % of control (=100) | –
B6 | 107 % of control (=100) | –
B7 | 103 % of control (=100) | –
B8 | – | He/Con_3a [1]: 65.5 % of control; He/Con_2b [2]: 94.7 % of control; He_3a/2b (IIIa/IIb) [3]: 0.69 ratio
B9 | 106 % of control (=100) | –
B10 | – | He/Con_3a [1]: 64.5 % of control; He/Con_2b [2]: 88.2 % of control; He_3a/2b (IIIa/IIb) [3]: 0.73 ratio
B11 | 114 % of control (=100) | –
B12 | 110 % of control (=100) | –
B13 | 106 % of control (=100) | –
B14 | – | He/Con_3a [1]: 54.5 % of control; He/Con_2b [2]: 79.3 % of control; He_3a/2b (IIIa/IIb) [3]: 0.69 ratio
B15 | 106 % of control (=100) | –
B16 | 107 % of control (=100) | –
B17 | 103 % of control (=100) | –
B18 | 106 % of control (=100) | –
B19 | 106 % of control (=100) | –
B20 | 106 % of control (=100) | –
B21 | 105 % of control (=100) | –
B22 | 106 % of control (=100) | –
B23 | 107 % of control (=100) | –
B24 | 104 % of control (=100) | –
B25 | – | He/Con_3a [1]: 56.4 % of control; He/Con_2b [2]: 95.4 % of control; He_3a/2b (IIIa/IIb) [3]: 0.59 ratio
B26 | 107 % of control (=100) | –
